The target of assay [1] is T1, endogenous human CD45 at the cell surface (Homo sapiens, UniProt P08575-4).
T1 construct: CD45, human, endogenous; also called CD45RO; source: endogenous, on YTS and NK92 cells and on primary human CD8+ T cells
Kind of assay: flow cytometry on cells; nanobodies incubated with Expi293F, NK92 or YTS cells; detected with anti-VHH-Alexa Fluor 647. The conditions noted are these: one partner purified.

Assay [2] addresses T2, CD45d1d2 (d1 and d2 domains of human CD45 linked to an AviTag) (Homo sapiens, biotin (site-specific, on the AviTag); N-linked glycosylation).
T2 construct: CD45, human, extracellular domains d1 and d2; Construct limits may stand in the Supporting Information; also called biotinylated human CD45 domains 1 and 2; source: Expi293F cells, purified
T2 chain: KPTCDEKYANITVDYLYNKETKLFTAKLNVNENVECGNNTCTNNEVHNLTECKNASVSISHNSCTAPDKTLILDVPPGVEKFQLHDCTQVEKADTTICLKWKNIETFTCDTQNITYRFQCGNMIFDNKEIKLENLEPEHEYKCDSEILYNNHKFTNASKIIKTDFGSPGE
Nature of the assay: ELISA; nanobodies coated on a plate, incubated with the indicated concentrations of biotinylated CD45d1d2; colorimetric detection (absorbance at 450 nm). The note with it: both partners purified. In general terms: An ELISA detects its analyte on a solid surface through an enzyme-linked reagent.

T1 sequence (P08575 other isoform, or with tags, fused parts or gaps): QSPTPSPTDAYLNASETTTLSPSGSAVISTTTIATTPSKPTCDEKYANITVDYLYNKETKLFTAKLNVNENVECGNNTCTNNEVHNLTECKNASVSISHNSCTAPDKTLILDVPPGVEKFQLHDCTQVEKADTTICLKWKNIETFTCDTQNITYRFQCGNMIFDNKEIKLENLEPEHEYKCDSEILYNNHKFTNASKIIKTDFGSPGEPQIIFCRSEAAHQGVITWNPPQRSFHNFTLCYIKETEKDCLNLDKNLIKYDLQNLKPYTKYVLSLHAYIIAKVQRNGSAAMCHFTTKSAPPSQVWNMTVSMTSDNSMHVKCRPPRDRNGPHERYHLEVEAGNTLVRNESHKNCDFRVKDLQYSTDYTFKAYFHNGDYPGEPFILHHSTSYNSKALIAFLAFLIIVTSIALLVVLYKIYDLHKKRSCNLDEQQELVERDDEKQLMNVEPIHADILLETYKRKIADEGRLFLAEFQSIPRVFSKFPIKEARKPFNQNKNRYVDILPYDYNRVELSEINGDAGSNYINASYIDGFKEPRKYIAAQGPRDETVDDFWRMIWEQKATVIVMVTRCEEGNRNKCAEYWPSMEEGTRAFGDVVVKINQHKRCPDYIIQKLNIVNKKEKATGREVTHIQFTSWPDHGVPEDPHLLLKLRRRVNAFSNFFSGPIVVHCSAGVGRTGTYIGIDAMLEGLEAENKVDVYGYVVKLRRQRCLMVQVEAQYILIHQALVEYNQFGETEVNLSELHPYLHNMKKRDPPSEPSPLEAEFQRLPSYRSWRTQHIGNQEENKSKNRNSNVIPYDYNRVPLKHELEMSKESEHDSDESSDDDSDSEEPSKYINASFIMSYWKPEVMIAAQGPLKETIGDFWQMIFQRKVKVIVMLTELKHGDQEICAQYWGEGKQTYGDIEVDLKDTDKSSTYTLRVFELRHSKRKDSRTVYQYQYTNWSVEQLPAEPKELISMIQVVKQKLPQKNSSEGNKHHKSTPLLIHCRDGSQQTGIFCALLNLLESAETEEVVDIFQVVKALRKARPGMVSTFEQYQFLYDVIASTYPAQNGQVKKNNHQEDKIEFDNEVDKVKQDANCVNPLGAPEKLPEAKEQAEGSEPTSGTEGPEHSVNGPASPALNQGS

B1: anti-CD45 nanobody 2H5 (VHH)
VHH: QVQLQESGGGLVQTGGSLTLSCVASGGTFSSYAMGWFRQAPGKEREFVAAIGGSGDSTYYADSVKGRFTISRDNAKNSVYLQMNSLKPEDTAVYYCQADPTMFHKLYYGINPNEYDYWGQGTLVTVSS
notes: VHH 2H5 against the d1d2 region of human CD45, from llama immunization; the source of the nanobodies is a cited earlier work
In the case of B1, the binding result in assay [1] and in assay [2] was “binds” throughout.

These data come from PMC12921663, “NanoBondy Reaction through NeissLock Anhydride Allows Covalent Immune Cell Decoration” (Bioconjugate Chemistry, 2026).
